Data on one substance can be found in patent publication US20100291638.

What all share (conditions): dNTP incorporation; background <500
Series [1] relates to T1, DNA polymerase clone 1773 (uncultured hot spring virus (Great Boiling Spring)).
T1 sequence: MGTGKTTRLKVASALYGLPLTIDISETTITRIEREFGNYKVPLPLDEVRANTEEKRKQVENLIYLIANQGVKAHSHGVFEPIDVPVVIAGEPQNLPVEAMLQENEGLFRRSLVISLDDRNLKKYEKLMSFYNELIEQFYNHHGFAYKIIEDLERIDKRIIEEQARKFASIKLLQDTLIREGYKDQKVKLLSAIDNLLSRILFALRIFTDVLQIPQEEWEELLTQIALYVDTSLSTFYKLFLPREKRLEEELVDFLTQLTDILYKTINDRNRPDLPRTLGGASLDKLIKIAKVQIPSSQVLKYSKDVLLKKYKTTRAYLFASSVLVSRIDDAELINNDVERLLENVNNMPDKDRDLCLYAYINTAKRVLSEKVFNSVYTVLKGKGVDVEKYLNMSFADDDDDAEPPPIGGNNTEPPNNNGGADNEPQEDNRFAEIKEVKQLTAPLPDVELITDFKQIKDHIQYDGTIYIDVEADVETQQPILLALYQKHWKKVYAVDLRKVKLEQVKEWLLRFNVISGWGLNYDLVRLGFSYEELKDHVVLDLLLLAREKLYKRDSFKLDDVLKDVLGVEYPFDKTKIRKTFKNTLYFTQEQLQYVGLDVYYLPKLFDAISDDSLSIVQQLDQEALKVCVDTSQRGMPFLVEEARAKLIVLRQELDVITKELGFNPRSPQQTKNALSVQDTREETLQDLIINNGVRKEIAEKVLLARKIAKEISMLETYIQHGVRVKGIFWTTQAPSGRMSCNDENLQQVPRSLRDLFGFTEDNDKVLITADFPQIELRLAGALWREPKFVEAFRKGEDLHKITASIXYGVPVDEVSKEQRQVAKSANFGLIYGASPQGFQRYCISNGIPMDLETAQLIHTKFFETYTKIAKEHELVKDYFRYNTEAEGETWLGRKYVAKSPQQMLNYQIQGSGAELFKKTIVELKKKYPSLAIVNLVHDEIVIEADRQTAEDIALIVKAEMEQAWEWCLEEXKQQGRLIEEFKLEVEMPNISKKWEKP

The test system of series [2] is T2, DNA polymerase clone 1160 (uncultured hot spring virus (Great Boiling Spring)).
T2 sequence: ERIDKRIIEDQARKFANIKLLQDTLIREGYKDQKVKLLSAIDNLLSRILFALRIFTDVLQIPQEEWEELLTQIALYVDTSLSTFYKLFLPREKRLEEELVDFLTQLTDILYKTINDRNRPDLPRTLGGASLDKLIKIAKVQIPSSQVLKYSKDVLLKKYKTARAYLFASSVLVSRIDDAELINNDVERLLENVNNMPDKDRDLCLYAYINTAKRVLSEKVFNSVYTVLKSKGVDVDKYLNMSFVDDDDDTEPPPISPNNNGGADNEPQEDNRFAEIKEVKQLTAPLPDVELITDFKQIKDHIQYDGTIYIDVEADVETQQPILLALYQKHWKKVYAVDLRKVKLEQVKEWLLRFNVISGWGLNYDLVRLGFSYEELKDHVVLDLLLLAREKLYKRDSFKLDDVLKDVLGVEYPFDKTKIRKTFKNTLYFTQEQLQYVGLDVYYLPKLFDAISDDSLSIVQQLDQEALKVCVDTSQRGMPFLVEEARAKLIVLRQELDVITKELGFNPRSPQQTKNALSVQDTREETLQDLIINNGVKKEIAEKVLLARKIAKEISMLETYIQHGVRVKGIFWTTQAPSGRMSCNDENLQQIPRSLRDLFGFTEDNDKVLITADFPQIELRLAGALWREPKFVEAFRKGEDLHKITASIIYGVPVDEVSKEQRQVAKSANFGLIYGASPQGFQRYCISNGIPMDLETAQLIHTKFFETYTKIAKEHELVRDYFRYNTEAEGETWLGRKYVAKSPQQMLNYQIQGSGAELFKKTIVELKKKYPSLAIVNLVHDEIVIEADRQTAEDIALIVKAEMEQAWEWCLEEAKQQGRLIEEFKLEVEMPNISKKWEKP

The subject of series [3] is T3, DNA polymerase clone 74 (uncultured hot spring virus (Great Boiling Spring)).
T3 sequence: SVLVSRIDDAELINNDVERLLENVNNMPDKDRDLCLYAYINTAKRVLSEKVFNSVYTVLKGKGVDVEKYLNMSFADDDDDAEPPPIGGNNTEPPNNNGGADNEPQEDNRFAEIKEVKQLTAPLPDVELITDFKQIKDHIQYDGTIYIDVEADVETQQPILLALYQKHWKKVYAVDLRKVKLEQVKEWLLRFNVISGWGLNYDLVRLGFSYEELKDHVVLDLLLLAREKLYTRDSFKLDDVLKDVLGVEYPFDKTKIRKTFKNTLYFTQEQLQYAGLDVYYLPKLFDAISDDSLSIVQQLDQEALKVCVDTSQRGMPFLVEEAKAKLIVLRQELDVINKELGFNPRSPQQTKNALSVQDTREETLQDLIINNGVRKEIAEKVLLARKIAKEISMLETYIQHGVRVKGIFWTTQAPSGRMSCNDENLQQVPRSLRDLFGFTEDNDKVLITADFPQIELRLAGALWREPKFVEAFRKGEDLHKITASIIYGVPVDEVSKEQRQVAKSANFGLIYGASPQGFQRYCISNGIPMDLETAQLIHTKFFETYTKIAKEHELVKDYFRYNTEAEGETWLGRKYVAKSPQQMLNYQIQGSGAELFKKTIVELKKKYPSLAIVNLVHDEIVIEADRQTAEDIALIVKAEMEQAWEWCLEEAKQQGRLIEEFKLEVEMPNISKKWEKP

As for activated calf thymus DNA, the activity is 124000 cpm in series [1], 139000 cpm in series [2] and 47400 cpm in series [3].
